“And” between values parts separate entries of the source, which are not always exact repeats. Identical values can stand only once. Like-named read-outs stand apart in the source and are kept apart here.

Assay [1] addresses T1, F protein of RSV (Long strain) (RSV (Long strain), UniProt P12568 26-574). The assay can be described thus: cell-based or functional assay.
For assay [2], the target named is T1, F protein of RSV (Long strain). The assay can be described thus: cell-based or functional assay. The source holds these as a separate data set.
The target of assay [3] is T2, RSV F glycoprotein (NUF4) (respiratory syncytial virus).
T2 chain 1: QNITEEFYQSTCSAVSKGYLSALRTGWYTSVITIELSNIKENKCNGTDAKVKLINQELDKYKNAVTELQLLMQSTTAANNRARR
T2 chain 2: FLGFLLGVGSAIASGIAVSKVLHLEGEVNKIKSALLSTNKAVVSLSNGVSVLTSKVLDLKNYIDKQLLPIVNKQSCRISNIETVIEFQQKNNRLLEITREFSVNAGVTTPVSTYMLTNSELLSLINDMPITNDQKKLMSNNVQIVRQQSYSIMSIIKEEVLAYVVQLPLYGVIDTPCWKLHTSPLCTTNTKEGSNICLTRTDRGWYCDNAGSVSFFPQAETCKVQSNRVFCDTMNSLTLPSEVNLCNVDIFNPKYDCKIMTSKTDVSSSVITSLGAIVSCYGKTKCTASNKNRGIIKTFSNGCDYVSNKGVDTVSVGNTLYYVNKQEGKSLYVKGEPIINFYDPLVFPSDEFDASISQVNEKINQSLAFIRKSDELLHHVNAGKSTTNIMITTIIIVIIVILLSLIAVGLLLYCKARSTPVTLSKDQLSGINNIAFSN
The assay can be described thus: SPR (BIAcore), mAb vs NUF4 (1:1). In general terms: SPR reads the build-up and loss of mass on a sensor chip optically.

For assay [4], the target named is T2, RSV F glycoprotein (NUF4). As to the kind of experiment: SPR (BIAcore), mAb vs NUF4 (2:1).
Assay [5] has as its target Bac-F (respiratory syncytial virus). The assay can be described thus: SPR (BIAcore), mAb vs Bac-F (1:1).
Assay [6] has as its target T3, recombinant C-terminally truncated RSV (A2 strain) F protein (RSV (A2 strain), UniProt P03420 26-524).
T3 construct: extracellular domain; also called truncated F protein; extracellular domain of the F protein from RSV A2
The assay can be described thus: SPR (BIAcore), IgG over immobilised F.

For assay [7], the target named is T1, F protein of RSV (Long strain). The assay can be described thus: cell-based or functional assay. This is another data set of the same source.
Assay [8] concerns the target T3, recombinant C-terminally truncated RSV …. As to the kind of experiment: SPR (BIAcore), Fab over immobilised F.
The target is the same in assay [9]. As to the kind of experiment: SPR (BIAcore), Fab over immobilised F. This is another data set of the same source.
For assay [10], the target named is RSV F protein (purified) (respiratory syncytial virus). The assay can be described thus: SPR (BIAcore), F protein immobilised.

B1: A1e9 IgG (antibody, V domains shown)
VH: QVTLRESGPALVKPTQTLTLTCTFSGFSLSTAGMSVGWIRQPPGKALEWLADIWWDGKKHYNPSLKDRLTISKDTSKNQVVLKVTNMDPADTATYYCARDMIFNWYFDVWGQGTTVTVSS
VL: DIQMTQSPSTLSASVGDRVTITCSLSSRVGYMHWYQQKPGKAPKLLIYDTFKLSSGVPSRFSGSGSGTEFTLTISSLQPDDFATYYCFQGSGYPFTFGGGTKVEIKR
notes: also called Ale9
By Kd is commonly meant a measure of binding affinity in units of concentration. By koff is commonly meant the first-order rate constant of dissociation. As a reminder, the kon is a measure of how fast the partners come together. On to B1, for which, in assay [1], the “Mean IC50 (Control)” value was determined as 0.0645 µg/mL and the “Mean IC50 (Curve)” value came out at 0.0625 µg/mL. The “Microneutralization IC50, IgG” value in [2] is 0.0625 µg/ml and 0.42 nM. In [3], the affinity, expressed as Kd, was 0.69 nM; the “fold in parentheses (palivizumab = 1)” value came to 13 fold; the koff came to 0.000584 s⁻¹; the on-rate (kon) was 843000 M⁻¹ s⁻¹. In assay [4], the affinity, expressed as Kd, was 4.22 nM; the “fold in parentheses (palivizumab = 1)” value was found to be 74 fold; the koff stood at 0.00139 s⁻¹; the kon came out at 329000 M⁻¹ s⁻¹. In assay [5], the affinity, expressed as Kd, was 0.33 nM and the “fold in parentheses (palivizumab = 1)” value was 12 fold. Further, in assay [6], the equilibrium dissociation constant (Kd) amounted to 0.33 nM, the koff came out at 0.000143 s⁻¹ and the kon was 433000 M⁻¹ s⁻¹.

B2: P12f2 IgG (antibody, V domains shown)
VH: QVTLRESGPALVKPTQTLTLTCTFSGFSLSTPGMSVGWIRQPPGKALEWLADIWWDDKKHYNPSLKDRLTISKDTSKNQVVLKVTNMDPADTATYYCARDMIFNFYFDVWGQGTTVTVSS
VL: DIQMTQSPSTLSASVGDRVTITCSLSSRVGYMHWYQQKPGKAPKLLIYDTFYLSSGVPSRFSGSGSGTEFTLTISSLQPDDFATYYCFQGSGYPFTFGGGTKVEIKR
For the molecule B2, in [1], the “Mean IC50 (Control)” value came to 0.0223 µg/mL and the “Mean IC50 (Curve)” value was determined as 0.0231 µg/mL. For the same molecule, the “Microneutralization IC50, IgG” value in assay [2] is 0.0231 µg/ml and 0.15 nM. In [3], the Kd is 0.33 nM, the “fold in parentheses (palivizumab = 1)” value was 26 fold, the koff came out at 0.000178 s⁻¹ and the kon is 541000 M⁻¹ s⁻¹. In addition, in [4], the Kd is 0.84 nM, the “fold in parentheses (palivizumab = 1)” value turned out to be 371 fold, the koff is 0.000236 s⁻¹ and the association rate constant (kon) was determined as 282000 M⁻¹ s⁻¹. Also, in assay [5], binding was put at a Kd of 0.31 nM and the “fold in parentheses (palivizumab = 1)” value was found to be 13 fold. For the same molecule, in [6], the Kd turned out to be 0.314 nM, the koff is 0.000128 s⁻¹ and the kon amounted to 407000 M⁻¹ s⁻¹.

B3: S52Y Fab (Fab, name in Kabat numbering, V domains shown)
VH: QVTLRESGPALVKPTQTLTLTCTFSGFSLSTSGMSVGWIRQPPGKALEWLADIWWDDKKDYNPSLKSRLTISKDTSKNQVVLKVTNMDPADTATYYCARSMITNWYFDVWGQGTTVTVSS
VL: DIQMTQSPSTLSASVGDRVTITCSASSSVGYMHWYQQKPGKAPKLLIYDTYKLASGVPSRFSGSGSGTEFTLTISSLQPDDFATYYCFQGSGYPFTFGGGTKVEIK
As to B3, the “Microneutralization IC50, Fab” value in assay [7] was 5.99 µg/ml and 120 nM. Further, in assay [8], the equilibrium dissociation constant (Kd) came to 0.74 nM, the koff amounted to 0.000125 s⁻¹ and the association rate constant (kon) was 170000 M⁻¹ s⁻¹.

B4: P12f4 IgG (antibody, V domains shown)
VH: QVTLRESGPALVKPTQTLTLTCTFSGFSLSTPGMSVGWIRQPPGKALEWLADIWWDGKKHYNPSLKDRLTISKDTSKNQVVLKVTNMDPADTATYYCARDMIFNFYFDVWGQGTTVTVSS
VL: DIQMTQSPSTLSASVGDRVTITCSLSSRVGYMHWYQQKPGKAPKLLIYDTRGLPSGVPSRFSGSGSGTEFTLTISSLQPDDFATYYCFQGSGYPFTFGGGTKVEIKR
For the molecule B4, in [1], the “Mean IC50 (Control)” value came to 0.0235 µg/mL and the “Mean IC50 (Curve)” value is 0.0242 µg/mL. Moreover, the “Microneutralization IC50, IgG” value in assay [2] is 0.242 µg/ml and 0.16 nM. Also, in assay [3], the equilibrium dissociation constant (Kd) is 0.24 nM, the “fold in parentheses (palivizumab = 1)” value was determined as 36 fold, the koff came to 0.000229 s⁻¹ and the association rate constant (kon) was 943000 M⁻¹ s⁻¹. Also, in assay [4], binding was put at a Kd of 2.33 nM, the “fold in parentheses (palivizumab = 1)” value is 134 fold, the off-rate constant (koff) was 0.000636 s⁻¹ and the kon came out at 273000 M⁻¹ s⁻¹. Also, in [5], the affinity, expressed as Kd, was 0.11 nM and the “fold in parentheses (palivizumab = 1)” value is 35 fold. Also, in assay [6], the Kd was 0.112 nM, the koff was determined as 5.55e-05 s⁻¹ and the kon was 495000 M⁻¹ s⁻¹.

B5: A8c7 IgG (antibody, V domains shown)
VH: QVTLRESGPALVKPTQTLTLTCTFSGFSLSTAGMSVGWIRQPPGKALEWLADIWWDDKKSYNPSLKDRLTISKDTSKNQVVLKVTNMDPADTATYYCARDMIFNWYFDVWGQGTTVTVSS
VL: DIQMTQSPSTLSASVGDRVTITCSPSSRVGYMHWYQQKPGKAPKLLIYDTRYQSSGVPSRFSGSGSGTEFTLTISSLQPDDFATYYCFQGSGYPFTFGGGTKVEIKR
Regarding B5, in assay [1], the “Mean IC50 (Control)” value turned out to be 0.0383 µg/mL and the “Mean IC50 (Curve)” value came to 0.0337 µg/mL. Further, the “Microneutralization IC50, IgG” value in assay [2] was 0.0337 µg/ml and 0.22 nM. In assay [3], the affinity, expressed as Kd, was 0.65 nM; the “fold in parentheses (palivizumab = 1)” value worked out at 13 fold; the dissociation rate constant (koff) was 0.000535 s⁻¹; the kon turned out to be 825000 M⁻¹ s⁻¹. Besides, in assay [4], the Kd amounted to 2.65 nM, the “fold in parentheses (palivizumab = 1)” value worked out at 118 fold, the off-rate constant (koff) amounted to 0.00114 s⁻¹ and the kon is 430000 M⁻¹ s⁻¹. Besides, in [5], the Kd amounted to 0.21 nM and the “fold in parentheses (palivizumab = 1)” value is 19 fold. Besides, in assay [6], the Kd was 0.21 nM, the koff worked out at 8.75e-05 s⁻¹ and the association rate constant (kon) stood at 417000 M⁻¹ s⁻¹.

B6: G93Y Fab (Fab, name in Kabat numbering, V domains shown)
VH: QVTLRESGPALVKPTQTLTLTCTFSGFSLSTSGMSVGWIRQPPGKALEWLADIWWDDKKDYNPSLKSRLTISKDTSKNQVVLKVTNMDPADTATYYCARSMITNWYFDVWGQGTTVTVSS
VL: DIQMTQSPSTLSASVGDRVTITCSASSSVGYMHWYQQKPGKAPKLLIYDTSKLASGVPSRFSGSGSGTEFTLTISSLQPDDFATYYCFQGSYYPFTFGGGTKVEIK
On to B6, for which the “Microneutralization IC50, Fab” value in assay [7] is 6.26 µg/ml and 125 nM. Besides, in assay [8], the dissociation constant Kd turned out to be 0.94 nM, the koff came out at 0.000153 s⁻¹ and the on-rate (kon) came out at 162000 M⁻¹ s⁻¹.

B7: palivizumab Fab (recombinant) (Fab, V domains shown)
VH: QVTLRESGPALVKPTQTLTLTCTFSGFSLSTSGMSVGWIRQPPGKALEWLADIWWDDKKDYNPSLKSRLTISKDTSKNQVVLKVTNMDPADTATYYCARSMITNWYFDVWGAGTTVTVSS
VL: DIQMTQSPSTLSASVGDRVTITCKCQLSVGYMHWYQQKPGKAPKLLIYDTSKLASGVPSRFSGSGSGTEFTLTISSLQPDDFATYYCFQGSGYPFTFGGGTKLEIK
As to B7, the “Microneutralization IC50, Fab” value in assay [7] was 27.5 µg/ml and 549 nM; in assay [2] it was 27.5 µg/ml and 549 nM. In addition, the dissociation constant (Kd) in assay [8] and in assay [9] was 5.25 nM throughout.

B8: 1X-493L1FR Fab (Fab, V domains shown)
VH: QVTLRESGPALVKPTQTLTLTCTFSGFSLSTSGMSVGWIRQPPGKALEWLADIWWDDKKDYNPSLKSRLTISKDTSKNQVVLKVTNMDPADTATYYCARSMITNWYFDVWGQGTTVTVSS
VL: DIQMTQSPSTLSASVGDRVTITCSASSSVGYMHWYQQKPGKAPKLLIYDTSKLASGVPSRFSGSGSGTEFTLTISSLQPDDFATYYCFQGSGYPFTFGGGTKVEIK
notes: also called IX-493L1FR
In the case of B8, the “Microneutralization IC50, Fab” value in assay [7] is 26.3 µg/ml and 526 nM. In assay [10], this molecule came in with a koff of 0.00065 s⁻¹ and a kon of 185000 M⁻¹ s⁻¹. Moreover, in assay [8], the dissociation constant (Kd) came to 3.52 nM, the dissociation rate constant (koff) worked out at 0.000651 s⁻¹ and the kon is 185000 M⁻¹ s⁻¹.

B9: S52F Fab (Fab, name in Kabat numbering, V domains shown)
VH: QVTLRESGPALVKPTQTLTLTCTFSGFSLSTSGMSVGWIRQPPGKALEWLADIWWDDKKDYNPSLKSRLTISKDTSKNQVVLKVTNMDPADTATYYCARSMITNWYFDVWGQGTTVTVSS
VL: DIQMTQSPSTLSASVGDRVTITCSASSSVGYMHWYQQKPGKAPKLLIYDTFKLASGVPSRFSGSGSGTEFTLTISSLQPDDFATYYCFQGSGYPFTFGGGTKVEIK
In the case of B9, in assay [7], the “Microneutralization IC50, Fab” value is 7.27 µg/ml and 1.45 µM. In [8], the dissociation constant Kd worked out at 0.85 nM, the koff is 0.000175 s⁻¹ and the kon came out at 206000 M⁻¹ s⁻¹.

The values above are taken from patent US20110158985A1 (published 2011).
